Data set [1] concerns the molecule itself. The experiment in a line: SEC; Superdex 200 HR 10/300, 25 °C, pH 5, 0.3 ml/min; step: the native enzyme to high molecular weight aggregates (void volume), compared with pH 7; no seeds.
Data set [2] concerns the molecule itself. The data set is described as follows: thioflavin T fluorescence kinetics; pH 5, 5 uM protein, 10 uM ThT, emission at 480 nm against time, seeded with preformed HylP2 fibrils; step: the native enzyme to fibrils.

B1: bacteriophage-associated hyaluronate lyase HylP2 (enzyme, Streptococcus pyogenes bacteriophage, UniProt Q54699 1-337, looked up)
chain: MSENIPLRVQFKRMKAAEWARSDVILLESEIGFETDTGFARAGDGHNRFSDLGYISPLDYNLLTNKPNIDGLATKVETAQKLQQKADKETVYTKAESKQELDKKLNLKGGVMTGQLKFKPAATVAYSSSTGGAVNIDLSSTRGAGVVVYSDNDTSDGPLMSLRTGKETFNQSALFVDYKGTTNAVNIAMRHATTPNFSSALNITSGNENGSAMQLRGSEKALGTLKITHENPSIGADYDKNAARYPLILSKRQNGAGTAAQGIYINSTSGTTGKLLRIRNLSDDKFYVKSDGGFYAKETSQIDGNLKLKDPTANDHAATKAYVDKAISELKKLILKK
notes: hyaluronate lyase HylP2 encoded by a Streptococcus pyogenes bacteriophage, full length, residues 1-337; also called HylP2_(1-337); phage hyaluronate lyase; source: E. coli BL21 (DE3), purified
On to B1, for which the binding result in data set [1] was “binds”.

B2: HylP_(M179V,M181V) (enzyme, Streptococcus pyogenes bacteriophage, UniProt P15316 1-371, looked up)
chain: MTENIPLRVQFKRMSADEWARSDVILLEGEIGFETDTGFAKFGDGQNTFSKLKYLTGPKGPKGDTGLQGKTGGTGPRGPAGKPGTTDYDQLQNKPDLGAFAQKEETNSKITKLESSKADKSAVYSKAESKIELDKKLSLTGGIVTGQLQFKPNKSGIKPSSSVGGAINIDMSKSEGAAVVVYTNKDTTDGPLMILRSDKDTFDQSAQFVDYSGKTNAVNIVMRQPSAPNFSSALNITSANEGGSAMQIRGVEKALGTLKITHENPNVEAKYDENAAALSIDIVKKQKGGKGTAAQGIYINSTSGTAGKMLRIRNKNEDKFYVGPDGGFHSGANSTVAGNLTVKDPTSGKHAATKDYVDEKIAELKKLILKK
notes: hyaluronate lyase HylP of a Streptococcus pyogenes bacteriophage, residues 1-371, with M179V and M181V; made from the vector construct of full length HylP; Generated from the vector construct of m2; also called hot spot double mutant of HylP; source: E. coli BL21 (DE3), purified
With B2, the binding result in data set [2] was “binds”.

Source of the values: publication PMC4585773, “The C-terminus hot spot region helps in the fibril formation of bacteriophage-associated hyaluronate lyase (HylP2)” (Scientific Reports, 2015).
